Patent US20150344570A1 (published 2015)

How the values were obtained:
[1] = molecular target: T1, FcγRIIa H (human, UniProt P12318 34-217); experiment: SPR; He/Con for FcγRIIa H divided by He/Con for FcγRIIb
T1 construct: extracellular domain; also called FcgRIIa H; 2aH; not shown: His tag attached to the C terminus
T1 sequence (looked up): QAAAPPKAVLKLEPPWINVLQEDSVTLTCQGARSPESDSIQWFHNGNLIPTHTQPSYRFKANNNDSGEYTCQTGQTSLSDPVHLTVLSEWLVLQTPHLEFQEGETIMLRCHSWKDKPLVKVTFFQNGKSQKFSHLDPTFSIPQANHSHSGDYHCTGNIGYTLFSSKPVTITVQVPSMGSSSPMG

[2] = molecular target: T1, FcγRIIa H; experiment: SPR (Biacore), antibody captured on antigen peptide chip, FcγR as analyte; relative binding activity
Description: (§1) The heterodimerized antibodies He Abs in which one of the H chains was introduced with an alteration were assayed for their binding activities to each activating FcγR and inhibitory FcγR according to the method described in Example 4. […] The activating FcγRs in FIGS. 26, 27, 28, and 29 are FcγRIa, FcγRIIa (R), FcγRIIa (H), and FcγRIIIa, respectively.
(§2) Analysis of interaction between objective antibody and the FcγR was carried out using Biacore T100 (GE Healthcare). HBS-EP+ (GE Healthcare) was used as the running buffer, and the measurement temperature was set to 25° C. Chips produced by immobilizing the antigen peptide by the amine coupling method to a Series S Sencor Chip CM5 (GE Healthcare), or alternatively, chips produced by allowing preliminarily biotinylated antigen peptides to interact with and immobilize onto a Series S Sensor Chip SA (certified) (GE Healthcare) were used. Antibodies of interest were captured onto an antigen peptide-immobilized chip, and allowed to interact to each FcγR diluted with running buffer. To regenerate and repeatedly use the chip, the antibodies captured on the chip were washed off by reacting 10 mM glycine-HCl, pH 1.5.

[3] = molecular target: T2, FcγRIIb (human, UniProt P31994 43-217); experiment: as above
T2 construct: extracellular domain; also called FcgRIIb; 2b; not shown: His tag attached to the C terminus
T2 sequence (looked up): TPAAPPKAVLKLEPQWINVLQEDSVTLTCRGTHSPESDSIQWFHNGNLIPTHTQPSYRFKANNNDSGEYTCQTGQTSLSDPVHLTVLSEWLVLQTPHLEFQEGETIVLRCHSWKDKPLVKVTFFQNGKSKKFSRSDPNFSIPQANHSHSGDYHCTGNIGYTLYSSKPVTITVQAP
Description: as §1, §2

| Binder | He_2aH/2b (IIaH/IIb) [1] [ratio] | He/Con_2aH [2] | He/Con_2b [3] |
| --- | --- | --- | --- |
| GpH7-A5/GpH7-B3 variant D265_02A/GpL16-k0 (antibody, human IgG1, kappa, Heterodimerized anti-glypican-3 IgG1; mutation in one H chain only; also called He Ab) heavy 1: not shown heavy 2: not shown light: DIVMTQSPLSLPVTPGEPASISCQASESLVHSNRNTYLHWYLQKPGQSPQLLIYKVSNRFSGVPDRFSGSGSGTDFTLKISRVEAEDVGVYYCSQNTHVPPTFGQGTKVEIERTVAAPSVFIFPPSDEQLKSGTASVVCLLNNFYPREAKVQWKVDNALQSGNSQESVTEQDSKDSTYSLSSTLTLSKADYEKHKVYACEVTHQGLSSPVTKSFNRGEC | 1.58 | 31.3 % of GpH7-A5/GpH7-B3/GpL16-k0 (=100) | 19.9 % of GpH7-A5/GpH7-B3/GpL16-k0 (=100) |
| GpH7-A5/GpH7-B3 variant D265_04F/GpL16-k0 (antibody, human IgG1, kappa, Heterodimerized anti-glypican-3 IgG1; mutation in one H chain only; also called He Ab) heavy 1: not shown heavy 2: not shown light: DIVMTQSPLSLPVTPGEPASISCQASESLVHSNRNTYLHWYLQKPGQSPQLLIYKVSNRFSGVPDRFSGSGSGTDFTLKISRVEAEDVGVYYCSQNTHVPPTFGQGTKVEIERTVAAPSVFIFPPSDEQLKSGTASVVCLLNNFYPREAKVQWKVDNALQSGNSQESVTEQDSKDSTYSLSSTLTLSKADYEKHKVYACEVTHQGLSSPVTKSFNRGEC | 1.28 | 4.1 % of GpH7-A5/GpH7-B3/GpL16-k0 (=100) | 3.2 % of GpH7-A5/GpH7-B3/GpL16-k0 (=100) |
| GpH7-A5/GpH7-B3 variant D265_06M/GpL16-k0 (antibody, human IgG1, kappa, Heterodimerized anti-glypican-3 IgG1; mutation in one H chain only; also called He Ab) heavy 1: not shown heavy 2: not shown light: DIVMTQSPLSLPVTPGEPASISCQASESLVHSNRNTYLHWYLQKPGQSPQLLIYKVSNRFSGVPDRFSGSGSGTDFTLKISRVEAEDVGVYYCSQNTHVPPTFGQGTKVEIERTVAAPSVFIFPPSDEQLKSGTASVVCLLNNFYPREAKVQWKVDNALQSGNSQESVTEQDSKDSTYSLSSTLTLSKADYEKHKVYACEVTHQGLSSPVTKSFNRGEC | 1.35 | 13.5 % of GpH7-A5/GpH7-B3/GpL16-k0 (=100) | 10 % of GpH7-A5/GpH7-B3/GpL16-k0 (=100) |

Now from value to binder:

| He_2aH/2b (IIaH/IIb) [1] [ratio] | He/Con_2aH [2] | He/Con_2b [3] | Binder |
| --- | --- | --- | --- |
| 1.42 | 4.6 % of GpH7-A5/GpH7-B3/GpL16-k0 (=100) | 3.2 % of GpH7-A5/GpH7-B3/GpL16-k0 (=100) | GpH7-A5/GpH7-B3 variant D265_03V/GpL16-k0 (antibody, human IgG1, kappa, Heterodimerized anti-glypican-3 IgG1; mutation in one H chain only; also called He Ab) heavy 1: not shown heavy 2: not shown light: DIVMTQSPLSLPVTPGEPASISCQASESLVHSNRNTYLHWYLQKPGQSPQLLIYKVSNRFSGVPDRFSGSGSGTDFTLKISRVEAEDVGVYYCSQNTHVPPTFGQGTKVEIERTVAAPSVFIFPPSDEQLKSGTASVVCLLNNFYPREAKVQWKVDNALQSGNSQESVTEQDSKDSTYSLSSTLTLSKADYEKHKVYACEVTHQGLSSPVTKSFNRGEC |
| 2.35 | 3.1 % of GpH7-A5/GpH7-B3/GpL16-k0 (=100) | 1.3 % of GpH7-A5/GpH7-B3/GpL16-k0 (=100) | GpH7-A5/GpH7-B3 variant D265_07I/GpL16-k0 (antibody, human IgG1, kappa, Heterodimerized anti-glypican-3 IgG1; mutation in one H chain only; also called He Ab) heavy 1: not shown heavy 2: not shown light: DIVMTQSPLSLPVTPGEPASISCQASESLVHSNRNTYLHWYLQKPGQSPQLLIYKVSNRFSGVPDRFSGSGSGTDFTLKISRVEAEDVGVYYCSQNTHVPPTFGQGTKVEIERTVAAPSVFIFPPSDEQLKSGTASVVCLLNNFYPREAKVQWKVDNALQSGNSQESVTEQDSKDSTYSLSSTLTLSKADYEKHKVYACEVTHQGLSSPVTKSFNRGEC |
| 1.87 | 27.8 % of GpH7-A5/GpH7-B3/GpL16-k0 (=100) | 14.9 % of GpH7-A5/GpH7-B3/GpL16-k0 (=100) | GpH7-A5/GpH7-B3 variant D265_11K/GpL16-k0 (antibody, human IgG1, kappa, Heterodimerized anti-glypican-3 IgG1; mutation in one H chain only; also called He Ab) heavy 1: not shown heavy 2: not shown light: DIVMTQSPLSLPVTPGEPASISCQASESLVHSNRNTYLHWYLQKPGQSPQLLIYKVSNRFSGVPDRFSGSGSGTDFTLKISRVEAEDVGVYYCSQNTHVPPTFGQGTKVEIERTVAAPSVFIFPPSDEQLKSGTASVVCLLNNFYPREAKVQWKVDNALQSGNSQESVTEQDSKDSTYSLSSTLTLSKADYEKHKVYACEVTHQGLSSPVTKSFNRGEC |
| 1.87 | 28 % of GpH7-A5/GpH7-B3/GpL16-k0 (=100) | 15 % of GpH7-A5/GpH7-B3/GpL16-k0 (=100) | GpH7-A5/GpH7-B3 variant D265_12R/GpL16-k0 (antibody, human IgG1, kappa, Heterodimerized anti-glypican-3 IgG1; mutation in one H chain only; also called He Ab) heavy 1: not shown heavy 2: not shown light: DIVMTQSPLSLPVTPGEPASISCQASESLVHSNRNTYLHWYLQKPGQSPQLLIYKVSNRFSGVPDRFSGSGSGTDFTLKISRVEAEDVGVYYCSQNTHVPPTFGQGTKVEIERTVAAPSVFIFPPSDEQLKSGTASVVCLLNNFYPREAKVQWKVDNALQSGNSQESVTEQDSKDSTYSLSSTLTLSKADYEKHKVYACEVTHQGLSSPVTKSFNRGEC |
